Reference: publication PMC3302947 (Biochemistry, 2012)

B1: MBP-Vif(101–176)_(AALA) (domain or fragment)
chain: ELADQLIHLYYFDCFSDSAIRKALLGHIVSPRCEYQAGHNKVGSLQYLALAALITPKKIKAALASVTKLTEDRWNK
B2: MBP-Vif(101–176)_(PPGP) (domain or fragment)
chain: not shown
B3: MBP-Vif(101–176)_(PPPP) (domain or fragment)
chain: not shown
B4: MBP-Vif(101–176) V166S (domain or fragment)
chain: not shown
B5: MBP-Vif(101–176) (domain or fragment)
chain: not shown
B6: MBP-Vif(101–160) (domain or fragment)
chain: ELADQLIHLYYFDCFSDSAIRKALLGHIVSPRCEYQAGHNKVGSLQYLALAALITPKKIK
B7: MBP-Vif(101–165) (domain or fragment)
chain: ELADQLIHLYYFDCFSDSAIRKALLGHIVSPRCEYQAGHNKVGSLQYLALAALITPKKIKPPLPS
B8: MBP-Vif(101–172) (domain or fragment)
chain: ELADQLIHLYYFDCFSDSAIRKALLGHIVSPRCEYQAGHNKVGSLQYLALAALITPKKIKPPLPSVTKLTED
B9: MBP-Vif(101–192) (domain or fragment)
chain: ELADQLIHLYYFDCFSDSAIRKALLGHIVSPRCEYQAGHNKVGSLQYLALAALITPKKIKPPLPSVTKLTEDRWNKPQKTKGHRGSHTMNGH
B10: MBP-Vif(154–176) (domain or fragment)
chain: ITPKKIKPPLPSVTKLTEDRWNK

Target: the molecule itself
Test: AUC

| Protein | binding result |
| --- | --- |
| B1 | binds |
| B2 | binds |
| B3 | binds |
| B4 | binds |

Target: the molecule itself
Test: AUC
Remark: another data set of the same source

| Protein | percent monomer at 10 μM |
| --- | --- |
| B5 | < 30% |
| B6 | < 30% |
| B7 | < 30% |
| B8 | < 30% |
| B9 | < 30% |

Target: the molecule itself
Test: AUC
Remark: another data set of the same source

| Protein | stoichiometry N |
| --- | --- |
| B10 | 2 |
